Assays:
[1] = target: T1, Y2H PPD1-AD (Arabidopsis PPD1 full length with N-terminal GAL4 activation domain; pDEST22-PPD1) (Arabidopsis); assay: yeast two-hybrid (legend of FIG. 6)
T1 construct: Prey fusion in yeast; The legend says only 'PPD'; also called PPD1 fused to AD
T1 chain: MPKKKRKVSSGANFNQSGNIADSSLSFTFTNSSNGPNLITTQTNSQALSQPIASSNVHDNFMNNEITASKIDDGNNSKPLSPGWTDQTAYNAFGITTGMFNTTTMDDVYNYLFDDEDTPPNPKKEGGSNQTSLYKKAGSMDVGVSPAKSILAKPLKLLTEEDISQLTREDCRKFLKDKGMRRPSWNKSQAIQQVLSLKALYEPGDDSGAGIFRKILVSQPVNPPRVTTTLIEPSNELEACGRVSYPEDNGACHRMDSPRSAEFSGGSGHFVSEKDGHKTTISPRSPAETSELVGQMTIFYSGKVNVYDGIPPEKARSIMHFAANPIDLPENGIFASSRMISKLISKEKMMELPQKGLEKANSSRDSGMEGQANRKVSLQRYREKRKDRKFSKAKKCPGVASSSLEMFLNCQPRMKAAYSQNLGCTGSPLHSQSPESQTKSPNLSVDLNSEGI
Experimental: (§1) The ProQuest two-hybrid system (Invitrogen) was used to analyse interactions between PPD1, NINJA, TPL, and BZR1. Combinations of bait and prey constructs were used to co-transform yeast strain MaV203 (Invitrogen), with selection on synthetic dropout (SD) SD/-Leu/-Trp agar plates. Transformed strains were tested for interactions using 10 μl droplets of 1 in 10 and 1 in 100 dilutions on SD/-Leu/-Trp/-His plates with different concentrations of 3-aminotriazol (3-AT) (Sigma).

[2] = target: T2, Y2H NINJA-AD (Arabidopsis NINJA, At4g28910, full length, with N-terminal GAL4 activation domain); … (Arabidopsis); assay: yeast two-hybrid (legend of FIG. 7)
T2 construct: Prey fusion in yeast; also called NINJA fused to AD
T2 chain: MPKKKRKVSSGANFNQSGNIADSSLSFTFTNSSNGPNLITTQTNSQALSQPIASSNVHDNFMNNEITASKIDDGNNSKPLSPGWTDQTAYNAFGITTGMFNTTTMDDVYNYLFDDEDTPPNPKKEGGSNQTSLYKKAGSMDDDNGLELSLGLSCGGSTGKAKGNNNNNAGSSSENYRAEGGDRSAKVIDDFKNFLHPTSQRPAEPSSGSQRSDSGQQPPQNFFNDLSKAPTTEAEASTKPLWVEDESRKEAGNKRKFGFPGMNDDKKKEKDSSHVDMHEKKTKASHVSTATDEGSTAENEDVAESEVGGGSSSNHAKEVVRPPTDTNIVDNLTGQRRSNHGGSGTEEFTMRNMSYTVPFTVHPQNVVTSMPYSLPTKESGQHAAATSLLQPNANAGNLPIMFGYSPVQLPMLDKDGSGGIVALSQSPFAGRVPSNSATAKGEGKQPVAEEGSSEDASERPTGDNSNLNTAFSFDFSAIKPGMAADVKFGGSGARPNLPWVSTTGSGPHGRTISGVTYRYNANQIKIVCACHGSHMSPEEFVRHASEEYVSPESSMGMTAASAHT
Experimental: as §1

[3] = target: T3, Y2H BZR1-AD (Arabidopsis BZR1, At1g75080, full length, with N-terminal GAL4 activation domain; pDEST22-BZR1) (Arabidopsis); assay: yeast two-hybrid (ProQuest, MaV203, SD/-Leu/-Trp/-His with 3-AT)
T3 construct: Prey fusion in yeast; also called BZR1 fused to AD; Brassinazole Resistant 1
T3 chain: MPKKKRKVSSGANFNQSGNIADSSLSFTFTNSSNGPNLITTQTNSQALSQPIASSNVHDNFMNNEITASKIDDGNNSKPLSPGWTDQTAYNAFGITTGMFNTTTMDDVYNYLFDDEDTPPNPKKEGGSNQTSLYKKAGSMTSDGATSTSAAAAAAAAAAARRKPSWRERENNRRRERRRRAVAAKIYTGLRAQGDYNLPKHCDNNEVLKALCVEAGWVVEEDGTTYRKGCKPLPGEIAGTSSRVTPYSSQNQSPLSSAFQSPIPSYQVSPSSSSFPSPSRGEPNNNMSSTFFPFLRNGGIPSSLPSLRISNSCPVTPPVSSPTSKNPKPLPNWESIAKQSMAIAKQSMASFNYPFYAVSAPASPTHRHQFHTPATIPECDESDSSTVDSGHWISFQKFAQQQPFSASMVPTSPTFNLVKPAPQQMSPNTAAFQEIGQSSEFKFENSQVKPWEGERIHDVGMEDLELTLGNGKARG
Experimental: as §1

[4] = target: T4, Y2H RGA1-AD (DELLA protein RGA1 with GAL4 activation domain); assay: yeast two-hybrid, PPD1-DBD as bait, selective medium with 15 mM 3AT
T4 construct: Prey fusion in yeast, tested with PPD1-DBD as bait
T4 chain: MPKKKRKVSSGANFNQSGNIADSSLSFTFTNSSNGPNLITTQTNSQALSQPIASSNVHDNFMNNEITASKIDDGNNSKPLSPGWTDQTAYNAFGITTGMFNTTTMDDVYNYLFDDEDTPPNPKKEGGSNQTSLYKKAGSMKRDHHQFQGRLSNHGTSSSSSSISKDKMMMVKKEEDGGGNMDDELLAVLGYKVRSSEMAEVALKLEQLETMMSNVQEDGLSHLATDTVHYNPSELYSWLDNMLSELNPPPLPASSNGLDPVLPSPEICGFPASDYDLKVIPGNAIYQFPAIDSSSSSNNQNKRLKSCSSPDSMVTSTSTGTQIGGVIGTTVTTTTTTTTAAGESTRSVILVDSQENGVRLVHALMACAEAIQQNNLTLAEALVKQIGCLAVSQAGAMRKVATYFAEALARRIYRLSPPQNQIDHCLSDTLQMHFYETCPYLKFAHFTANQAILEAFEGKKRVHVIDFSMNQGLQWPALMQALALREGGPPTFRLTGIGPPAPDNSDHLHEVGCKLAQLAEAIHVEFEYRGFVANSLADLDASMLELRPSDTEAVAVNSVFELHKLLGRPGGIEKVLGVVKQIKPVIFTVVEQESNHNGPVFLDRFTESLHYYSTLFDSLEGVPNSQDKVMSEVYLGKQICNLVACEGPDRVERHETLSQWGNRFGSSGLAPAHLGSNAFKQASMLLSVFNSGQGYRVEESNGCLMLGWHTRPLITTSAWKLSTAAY
From the text: The ProQuest two-hybrid system (Invitrogen) was used to analyse interactions between PPD1, and RGA1. Full length coding sequences of PPD1, together with truncation or deletion derivatives of PPD1 (PPD1Δppd, PPD1Δtify, and PPD1Δjas*) (FIG. 5), were Gateway sub-cloned into pDEST32 (N-terminal GAL4DBD) or pDEST22 (N-terminal GAL4AD). When translated these generated the following peptide sequences: 55, 65, 66, 67, 68, 7169, which are PPD1-DBD, RGA1, RGA1-AD, PPD1-ppd-DBD, PPD1-tify-DBD, PP1-jas*-DBD respectively.
Combinations of bait and prey constructs were used to co-transform yeast strain MaV203 (Invitrogen), with selection on synthetic dropout (SD) SD/-Leu/-Trp agar plates. Transformed strains were tested for interactions using 10 μl droplets of 1 in 10 and 1 in 100 dilutions on SD/-Leu/-Trp/-His plates with different concentrations of 3-aminotriazol (3-AT) (Sigma). The PPD1-RGA1 interaction was tested with PPD1-DBD used as bait. Transformed yeast was spotted as a ten-fold dilution on control medium (−2) or selective medium (−3) with 15 mM 3AT. Controls were empty vectors, DBD, GAL4 DNA binding domain, AD, GAL4 activation domain (FIG. 5).

[5] = target: T2, Y2H NINJA-AD (Arabidopsis NINJA, …); assay: yeast two-hybrid (legend of FIG. 6)
Experimental: as §1

[6] = target: T3, Y2H BZR1-AD (Arabidopsis BZR1, …); assay: yeast two-hybrid (legend of FIG. 7)
Experimental: as §1

B1: Y2H PPD1-DBD (Arabidopsis PPD1, At4g14713, full length, with N-terminal GAL4 DNA binding domain; pDEST32-PPD1) (other)
chain: MKLLSSIEEACNICRLKKLKCSKEKPKCAKCLKNNWECRYSPKTKRSPLTRAHLTEVESRLERLEQLFLLIFPRENLNMILKMDSLQDIKALLTGLFVQDNVNKDAVTDRLASVETDMPLTLRQHRISATSSSEESSNKGQRQLTVSSRSNQTSLYKKAGSMDVGVSPAKSILAKPLKLLTEEDISQLTREDCRKFLKDKGMRRPSWNKSQAIQQVLSLKALYEPGDDSGAGIFRKILVSQPVNPPRVTTTLIEPSNELEACGRVSYPEDNGACHRMDSPRSAEFSGGSGHFVSEKDGHKTTISPRSPAETSELVGQMTIFYSGKVNVYDGIPPEKARSIMHFAANPIDLPENGIFASSRMISKLISKEKMMELPQKGLEKANSSRDSGMEGQANRKVSLQRYREKRKDRKFSKAKKCPGVASSSLEMFLNCQPRMKAAYSQNLGCTGSPLHSQSPESQTKSPNLSVDLNSEGI
notes: Bait fusion expressed in yeast strain MaV203 (ProQuest two-hybrid system); also called PPD1 fused to DBD; PPD1 bait
binding result [1]: binds | binding result [2]: binds | binding result [3]: no binding | binding result [4]: binds

B2: Y2H TPL-DBD (Arabidopsis TOPLESS, At1g15750, full length, with N-terminal GAL4 DNA binding domain; pDEST32-TPL) (other)
chain: MKLLSSIEEACNICRLKKLKCSKEKPKCAKCLKNNWECRYSPKTKRSPLTRAHLTEVESRLERLEQLFLLIFPRENLNMILKMDSLQDIKALLTGLFVQDNVNKDAVTDRLASVETDMPLTLRQHRISATSSSEESSNKGQRQLTVSSRSNQTSLYKKAGSMSSLSRELVFLILQFLDEEKFKETVHKLEQESGFFFNMKYFEDEVHNGNWDEVEKYLSGFTKVDDNRYSMKIFFEIRKQKYLEALDKHDRPKAVDILVKDLKVFSTFNEELFKEITQLLTLENFRENEQLSKYGDTKSARAIMLVELKKLIEANPLFRDKLQFPTLRNSRLRTLINQSLNWQHQLCKNPRPNPDIKTLFVDHSCGPPNGARAPSPVNNPLLGGIPKAGGFPPLGAHGPFQPTASPVPTPLAGWMSSPSSVPHPAVSAGAIALGGPSIPAALKHPRTPPTNASLDYPSADSEHVSKRTRPMGISDEVNLGVNMLPMSFSGQAHGHSPAFKAPDDLPKTVARTLSQGSSPMSMDFHPIKQTLLLVGTNVGDIGLWEVGSRERLVQKTFKVWDLSKCSMPLQAALVKEPVVSVNRVIWSPDGSLFGVAYSRHIVQLYSYHGGEDMRQHLEIDAHVGGVNDISFSTPNKQLCVITCGDDKTIKVWDAATGVKRHTFEGHEAPVYSVCPHYKENIQFIFSTALDGKIKAWLYDNMGSRVDYDAPGRWCTTMAYSADGTRLFSCGTSKDGESFIVEWNESEGAVKRTYQGFHKRSLGVVQFDTTKNRYLAAGDDFSIKFWDMDAVQLLTAIDGDGGLQASPRIRFNKEGSLLAVSGNENVIKIMANSDGLRLLHTFENISSESSKPAINSIAAAAAAAATSAGHADRSANVVSIQGMNGDSRNMVDVKPVITEESNDKSKIWKLTEVSEPSQCRSLRLPENLRVAKISRLIFTNSGNAILALASNAIHLLWKWQRNERNATGKATASLPPQQWQPASGILMTNDVAETNPEEAVPCFALSKNDSYVMSASGGKISLFNMMTFKTMATFMPPPPAATFLAFHPQDNNIIAIGMDDSTIQIYNVRVDEVKSKLKGHSKRITGLAFSNVLNVLVSSGADAQLCVWNTDGWEKQRSKVLPLPQGRPNSAPSDTRVQFHQDQAHFLVVHETQLAIYETTKLECMKQWAVRESLAPITHATFSCDSQLVYASFMDATVCVFSSANLRLRCRVNPSAYLPASLSNSNVHPLVIAAHPQEPNMFAVGLSDGGVHIFEPLESEGKWGVAPPAENGSASGAPTAPSVGASASDQPQR
notes: Bait fusion in yeast; also called TPL fused to DBD
binding result [5]: binds | binding result [6]: binds
